L/C ratio data for one substance are collected here from PMC2767389.

In this assay the target is C1-100, C-terminally truncated C protein of HPIV3, C-terminally flag-tagged (human parainfluenza virus type 3). In words: co-IP.

On to “HPIV3 L protein (viral RNA polymerase), non-tagged (from UniProt P12577 1-2233) (enzyme)”, for which the L/C ratio amounted to 0.03.
